The source of these data is paper PMC13216289 (NPJ Vaccines, 2026).

Assay in all cases: BLI
Settings in all cases: both partners purified

For assay [1], the target named is T1, FMDV O1/Manisa/TUR/69 virus-like particle, VP2 93C stabilised (Foot-and-mouth disease virus …, UniProt Q6PMW3, stabilised).
T1 construct: copies: 60 + 60 + 60 + 60

The target in assay [2] is T2, FMDV A22/IRQ/24/64 virus-like particle, VP2 93C stabilised (FMDV serotype A, A22/IRQ/24/64, stabilised).
T2 construct: copies: 60 + 60 + 60 + 60

Assay [3] has as its target T1, FMDV O1/Manisa/TUR/69 virus-like …. This is another data set of the same source.
The target in assay [4] is T2, FMDV A22/IRQ/24/64 virus-like particle, …. This is another data set of the same source.

Positions count from the first letter of the chain named.

For orientation: Kd means the free concentration of one partner at which half of the binding sites on the other are occupied at equilibrium, for simple one-to-one binding. Broadly, the koff is a measure of how fast the partners let go of each other. A higher koff goes with fast dissociation. By kon is commonly meant the second-order rate constant of association.

B1: Ab34, recombinant cattle IgG1/lambda antibody (antibody, V domains shown)
VH: QVQLRESGPSLVKPSQTLSLTCTVSGFSLTDVHVGWVRQTPGKALEWVGVICNRGAIGYNPALESRLSITEDNSKSQVSLSLSSVTTADTATYYCASSCRTEGDVGGDCDSDHFFCAWGQGLLVTVSS
VL: SYELTQPTSVSVALGQTAKITCSGDLLDRQYAQWYQQKPGQGPVRVIYKDSERPSGISDRFSGSSSGKTATLTVSGAQTEDEADYYCHSADSSHYPVFGSGSTLTVL
notes: copies: 2 + 2
Take B1: the values for the Kd in assay [1] and in assay [2] were 0.00904 nM and 0.0093 nM, respectively.

B2: Fab34, recombinant cattle Fab of Ab34 (Fab, V domains shown)
VH: B1 VH
VL: B1 VL
Take B2: the figures for the Kd in assay [3] and in assay [4] were 12.3 nM and 9.9 nM, respectively.

B3: Ab17, recombinant cattle IgG1/lambda antibody (antibody, V domains shown)
VH: QVQLRESGPSSLKPSQTLSLTCAVSGFSLSTYAVGWVRQAPGKALEWVGDITSSGDTFYNPALKSRFSITKDNSKNQVSLSVGSVTPEDTATFYCTRLTCGDDCSTAWHNFDAWGQGLLVTVSS
VL: SYELTQPTSVSVALGQTAKITCSGDLLDVQYTQWYQQKPGQGPVRVIYKDSERPSGISDRFSGSSSGKTATLIISGAQTEDEADYYCQSTDSSQYGIFGRGTTLTVL
notes: copies: 2 + 2
In assay [1], B3 gave a Kd of 0.021 nM, a koff of 7.96e-06 s⁻¹ and a kon of 303000 M⁻¹ s⁻¹. For the same molecule, in assay [2], the Kd was 0.246 nM, the koff was 0.000164 s⁻¹ and the kon amounted to 685000 M⁻¹ s⁻¹.

B4: Fab17, recombinant cattle Fab of Ab17 (Fab, V domains shown)
VH: B3 VH
VL: B3 VL
In assay [3], B4 showed a Kd of 5.93 nM, a koff of 0.0117 s⁻¹ and a kon of 1.19e+06 M⁻¹ s⁻¹. In assay [4], this molecule displayed a Kd of 19.6 nM, a koff of 0.0298 s⁻¹ and a kon of 1.52e+06 M⁻¹ s⁻¹.

B5: Fab49, recombinant cattle Fab of Ab49 (Fab, V domains shown)
VH: QVQLRESGPSLVKPSQTLSLTCTVSGFSLTNYAVGWVRQAPGKAIQSLSIISTTGDTYYNPALKSRLSITKDNSKSQVSLSVSSVAPEDTATYYCVKFCGNADSAGHGWGCDYGDNENWGQGLLVTVSS
VL: B1 VL with R29E, A32T, V74I, H88Q, A90F, D91Y, H94T, Y95D, S102T
In assay [3], B5 registered a Kd of 6.37 nM, a koff of 0.0029 s⁻¹ and a kon of 553000 M⁻¹ s⁻¹. In assay [4], this molecule registered a Kd of 4.44 nM, a koff of 0.00349 s⁻¹ and a kon of 749000 M⁻¹ s⁻¹.

B6: Ab49, recombinant cattle IgG1/lambda antibody (antibody, V domains shown)
VH: B5 VH
VL: B1 VL with R29E, A32T, V74I, H88Q, A90F, D91Y, H94T, Y95D, S102T
notes: copies: 2 + 2
In the case of B6, in assay [1], binding was characterised by a dissociation constant (Kd) of 0.156 nM, the koff turned out to be 4.9e-05 s⁻¹ and the kon was 257000 M⁻¹ s⁻¹. In assay [2], this molecule registered a Kd of 0.114 nM, a koff of 3.61e-05 s⁻¹ and a kon of 389000 M⁻¹ s⁻¹.
